Measured values as given in paper PMC7544233 (2020).

B1: D-hTERC rG4 (structured_RNA)
RNA: GGGUUGCGGAGGGUGGGCCU

Columns and labels:
[1] = tested on: FAM-D-hTERC rG4 (RNA, G4) GGGUUGCGGAGGGUGGGCCU; experiment: microscale thermophoresis; details: 150 mM KCl, 1 mM MgCl2; 25 mM Tris-HCl pH 7.5, 25 °C, 40 nM RNA
nucleolin = nucleolin (UniProt P19338 1-710); experiment: EMSA
RHAU53 peptide = molecular target: T1, RHAU53 peptide (UniProt Q9H2U1 53-105); experiment: EMSA
T1 sequence: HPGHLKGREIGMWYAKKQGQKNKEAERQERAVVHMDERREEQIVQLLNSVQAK

nucleolin, sequence (P19338 whole entry): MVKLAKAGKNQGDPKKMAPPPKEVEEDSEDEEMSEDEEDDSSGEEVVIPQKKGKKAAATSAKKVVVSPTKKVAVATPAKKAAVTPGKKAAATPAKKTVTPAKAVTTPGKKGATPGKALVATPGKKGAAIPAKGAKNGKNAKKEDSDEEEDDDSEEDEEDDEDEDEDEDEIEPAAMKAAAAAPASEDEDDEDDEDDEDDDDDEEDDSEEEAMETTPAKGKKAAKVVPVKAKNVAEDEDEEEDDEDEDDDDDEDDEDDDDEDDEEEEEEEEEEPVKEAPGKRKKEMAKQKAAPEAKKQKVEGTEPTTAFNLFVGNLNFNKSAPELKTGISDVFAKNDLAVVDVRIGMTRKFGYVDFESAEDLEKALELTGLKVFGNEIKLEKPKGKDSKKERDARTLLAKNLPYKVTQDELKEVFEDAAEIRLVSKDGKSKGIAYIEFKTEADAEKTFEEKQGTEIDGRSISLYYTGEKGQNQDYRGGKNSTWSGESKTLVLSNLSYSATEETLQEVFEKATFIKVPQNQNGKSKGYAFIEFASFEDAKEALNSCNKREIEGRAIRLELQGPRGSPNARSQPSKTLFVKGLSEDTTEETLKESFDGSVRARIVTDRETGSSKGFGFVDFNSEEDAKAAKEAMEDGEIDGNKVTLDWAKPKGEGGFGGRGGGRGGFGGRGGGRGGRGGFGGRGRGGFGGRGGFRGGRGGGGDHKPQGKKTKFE

| Molecule | Kd [1] [nM] | binding result (nucleolin) | Kd (RHAU53 peptide) [nM] |
| --- | --- | --- | --- |
| NCCOc1cc(NC(=O)c2cc(OCc3cn(CCC(=O)O)nn3)cc(C(=O)Nc3cc(OCCN)c4ccccc4n3)n2)nc2ccccc12 | 19.5 ± 11.5 | – | – |
| B1 | – | binds | 24.5 ± 3.9 |
